Data on 1 molecule can be found in doi:10.1101/2025.11.27.690911.

The target in the series is thrombin (UniProt P00734;P00734 328-363;364-622). As to the kind of experiment: SPR.

B1: SuperCan (structured_DNA)
DNA: GAAGAATGAACAGAGTAGGTCAAAGTCAGTGGGGAGTACACCACTGACGACGAGTTGAATGAACGTAGGAAGTAAGTATACGTTCATTCTTAGCTTCCAAAGCAGAGTGCGAGGCTTTGGAGCGTAACTTGCGTTATCGTCGCAAGAAAGCAAACGGTGATGAGACAATC
In the case of B1, the binding result is “binds”.
